Source: patent publication US20210388110A1 (published 2021)

Molecular target: T1, soluble human GPC3 (human, UniProt P51654 25-563, limits assumed)
T1 construct: soluble human GPC3 as analyte; also called glypican 3
Assay: SPR (Biacore), soluble human GPC3

T1 sequence (P51654 other isoform, or with tags, fused parts or gaps limits assumed, form in doubt): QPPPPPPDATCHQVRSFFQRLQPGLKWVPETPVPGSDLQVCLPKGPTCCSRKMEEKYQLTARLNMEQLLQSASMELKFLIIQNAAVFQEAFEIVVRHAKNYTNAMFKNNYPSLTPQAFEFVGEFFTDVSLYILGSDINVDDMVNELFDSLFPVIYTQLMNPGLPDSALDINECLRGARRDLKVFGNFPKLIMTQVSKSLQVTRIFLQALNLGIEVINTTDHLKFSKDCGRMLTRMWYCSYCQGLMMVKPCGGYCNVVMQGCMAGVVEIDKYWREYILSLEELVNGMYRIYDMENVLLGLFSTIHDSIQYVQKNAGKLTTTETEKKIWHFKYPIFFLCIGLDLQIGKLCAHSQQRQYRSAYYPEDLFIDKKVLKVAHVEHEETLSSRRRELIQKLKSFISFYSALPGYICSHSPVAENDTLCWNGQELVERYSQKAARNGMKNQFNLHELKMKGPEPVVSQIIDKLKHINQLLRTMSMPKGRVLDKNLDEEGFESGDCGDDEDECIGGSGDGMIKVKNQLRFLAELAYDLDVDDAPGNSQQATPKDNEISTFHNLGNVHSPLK

Binder | Kd [pM]
H0610-G1dh/none-Hi-Kn010G3/L0264-k0 (antibody, human IgG1, kappa, single-arm (one Fab)) heavy: not shown EPKSSDKTHTCPPCPAPELLGGPSVFLFPPKPKDTLMISRTPEVTCVVVDVSHEDPEVKFNWYVDGVEVHNAKTKPREEQYNSTYRVVSVLTVLHQDWLNGKEYKCKVSNKALPAPIEKTISKAKGQPREPQVCTLPPSRDELTKNQVSLWCLVKGFYPSDIAVEWESNGQPENNYKTTPPVLDSDGSFFLYSKLTVDKSRWQQGNVFSCSVMHEALHNRYTQKSLSLSP light: DIVMTQSPLSLPVTPGEPASISCRPSQSPVHSNRNTYLHWYQQKPGQAPRLLIYKVSNRFSGVPDRFSGSGSGTDFTLKISRVEAEDVGVYYCAQGTQVPYTFGQGTKLEIKRTVAAPSVFIFPPSDEQLKSGTASVVCLLNNFYPREAKVQWKVDNALQSGNSQESVTEQDSKDSTYSLSSTLTLSKADYEKHKVYACEVTHQGLSSPVTKSFNRGEC | 219
H0610-G1dh/none-Hi-Kn010G3/L0265-k0 (antibody, human IgG1, kappa, single-arm (one Fab)) heavy: not shown EPKSSDKTHTCPPCPAPELLGGPSVFLFPPKPKDTLMISRTPEVTCVVVDVSHEDPEVKFNWYVDGVEVHNAKTKPREEQYNSTYRVVSVLTVLHQDWLNGKEYKCKVSNKALPAPIEKTISKAKGQPREPQVCTLPPSRDELTKNQVSLWCLVKGFYPSDIAVEWESNGQPENNYKTTPPVLDSDGSFFLYSKLTVDKSRWQQGNVFSCSVMHEALHNRYTQKSLSLSP light: DIVMTQSPLSLPVTPGEPASISCRSSQSPVHSNRNTYIQWYQQKPGQAPRLLIYKVSNRFSGVPDRFSGSGSGTDFTLKISRVEAEDVGVYYCAQGTQVPYTFGQGTKLEIKRTVAAPSVFIFPPSDEQLKSGTASVVCLLNNFYPREAKVQWKVDNALQSGNSQESVTEQDSKDSTYSLSSTLTLSKADYEKHKVYACEVTHQGLSSPVTKSFNRGEC | 8.7
H0610-G1dh/none-Hi-Kn010G3/L0266-k0 (antibody, human IgG1, kappa, single-arm (one Fab)) heavy: not shown EPKSSDKTHTCPPCPAPELLGGPSVFLFPPKPKDTLMISRTPEVTCVVVDVSHEDPEVKFNWYVDGVEVHNAKTKPREEQYNSTYRVVSVLTVLHQDWLNGKEYKCKVSNKALPAPIEKTISKAKGQPREPQVCTLPPSRDELTKNQVSLWCLVKGFYPSDIAVEWESNGQPENNYKTTPPVLDSDGSFFLYSKLTVDKSRWQQGNVFSCSVMHEALHNRYTQKSLSLSP light: DIVMTQSPLSLPVTPGEPASISCRSSQPPVHSNRNTYLHWYQQKPGQAPRLLIYKVSNRFSGVPDRFSGSGSGTDFTLKISRVEAEDVGVYYCVQGTQVPYTFGQGTKLEIKRTVAAPSVFIFPPSDEQLKSGTASVVCLLNNFYPREAKVQWKVDNALQSGNSQESVTEQDSKDSTYSLSSTLTLSKADYEKHKVYACEVTHQGLSSPVTKSFNRGEC | 213
H0610-G1dh/none-Hi-Kn010G3/L0268-k0 (antibody, human IgG1, kappa, single-arm (one Fab)) heavy: not shown EPKSSDKTHTCPPCPAPELLGGPSVFLFPPKPKDTLMISRTPEVTCVVVDVSHEDPEVKFNWYVDGVEVHNAKTKPREEQYNSTYRVVSVLTVLHQDWLNGKEYKCKVSNKALPAPIEKTISKAKGQPREPQVCTLPPSRDELTKNQVSLWCLVKGFYPSDIAVEWESNGQPENNYKTTPPVLDSDGSFFLYSKLTVDKSRWQQGNVFSCSVMHEALHNRYTQKSLSLSP light: DIVMTQSPLSLPVTPGEPASISCRSSQSPVHSNRNTYIQWYQQKPGQAPRLLIYKVSNRFSGVPDRFSGSGSGTDFTLKISRVEAEDVGVYYCVQGTQVPYTFGQGTKLEIKRTVAAPSVFIFPPSDEQLKSGTASVVCLLNNFYPREAKVQWKVDNALQSGNSQESVTEQDSKDSTYSLSSTLTLSKADYEKHKVYACEVTHQGLSSPVTKSFNRGEC | 16.9
H0610-G1dh/none-Hi-Kn010G3/L0267-k0 (antibody, human IgG1, kappa, single-arm (one Fab)) heavy: not shown EPKSSDKTHTCPPCPAPELLGGPSVFLFPPKPKDTLMISRTPEVTCVVVDVSHEDPEVKFNWYVDGVEVHNAKTKPREEQYNSTYRVVSVLTVLHQDWLNGKEYKCKVSNKALPAPIEKTISKAKGQPREPQVCTLPPSRDELTKNQVSLWCLVKGFYPSDIAVEWESNGQPENNYKTTPPVLDSDGSFFLYSKLTVDKSRWQQGNVFSCSVMHEALHNRYTQKSLSLSP light: DIVMTQSPLSLPVTPGEPASISCRPSQSPVHSNRNTYLHWYQQKPGQAPRLLIYKVSNRFSGVPDRFSGSGSGTDFTLKISRVEAEDVGVYYCVQGTQVPYTFGQGTKLEIKRTVAAPSVFIFPPSDEQLKSGTASVVCLLNNFYPREAKVQWKVDNALQSGNSQESVTEQDSKDSTYSLSSTLTLSKADYEKHKVYACEVTHQGLSSPVTKSFNRGEC | 179

More lines, now with the values ahead:

Kd [pM] | Binder
3810 | H0610-G1dh/none-Hi-Kn010G3/TR01L009-k0 (antibody, human IgG1, kappa, single-arm (one Fab)) heavy: not shown EPKSSDKTHTCPPCPAPELLGGPSVFLFPPKPKDTLMISRTPEVTCVVVDVSHEDPEVKFNWYVDGVEVHNAKTKPREEQYNSTYRVVSVLTVLHQDWLNGKEYKCKVSNKALPAPIEKTISKAKGQPREPQVCTLPPSRDELTKNQVSLWCLVKGFYPSDIAVEWESNGQPENNYKTTPPVLDSDGSFFLYSKLTVDKSRWQQGNVFSCSVMHEALHNRYTQKSLSLSP light: DIVMTQSPLSLPVTPGEPASISCRSSQSLVHSNRNTYLHWYLQKPGQSPQLLIYKVSNRFRGVPDRFSGSGSGTDFTLKISRVEAEDVGVYYCGQGTQVPYTFGQGTKLEIKRTVAAPSVFIFPPSDEQLKSGTASVVCLLNNFYPREAKVQWKVDNALQSGNSQESVTEQDSKDSTYSLSSTLTLSKADYEKHKVYACEVTHQGLSSPVTKSFNRGEC
459 | H0610-G1dh/none-Hi-Kn010G3/L0269-k0 (antibody, human IgG1, kappa, single-arm (one Fab)) heavy: not shown EPKSSDKTHTCPPCPAPELLGGPSVFLFPPKPKDTLMISRTPEVTCVVVDVSHEDPEVKFNWYVDGVEVHNAKTKPREEQYNSTYRVVSVLTVLHQDWLNGKEYKCKVSNKALPAPIEKTISKAKGQPREPQVCTLPPSRDELTKNQVSLWCLVKGFYPSDIAVEWESNGQPENNYKTTPPVLDSDGSFFLYSKLTVDKSRWQQGNVFSCSVMHEALHNRYTQKSLSLSP light: DIVMTQSPLSLPVTPGEPASISCRSSQSPVHSNRNTYIQWYQQKPGQAPRLLIYKVSNRFSGVPDRFSGSGSGTDFTLKISRVEAEDVGVYYCGQGTQVPYTFGQGTKLEIKRTVAAPSVFIFPPSDEQLKSGTASVVCLLNNFYPREAKVQWKVDNALQSGNSQESVTEQDSKDSTYSLSSTLTLSKADYEKHKVYACEVTHQGLSSPVTKSFNRGEC
2920 | H0610-G1dh/none-Hi-Kn010G3/TR01L010-k0 (antibody, human IgG1, kappa, single-arm (one Fab)) heavy: not shown EPKSSDKTHTCPPCPAPELLGGPSVFLFPPKPKDTLMISRTPEVTCVVVDVSHEDPEVKFNWYVDGVEVHNAKTKPREEQYNSTYRVVSVLTVLHQDWLNGKEYKCKVSNKALPAPIEKTISKAKGQPREPQVCTLPPSRDELTKNQVSLWCLVKGFYPSDIAVEWESNGQPENNYKTTPPVLDSDGSFFLYSKLTVDKSRWQQGNVFSCSVMHEALHNRYTQKSLSLSP light: DIVMTQSPLSLPVTPGEPASISCRSSQSLVHSNRNTYLHWYQQKPGQAPRLLIYKVSNRFRGVPDRFSGSGSGTDFTLKISRVEAEDVGVYYCGQGTQVPYTFGQGTKVEIERTVAAPSVFIFPPSDEQLKSGTASVVCLLNNFYPREAKVQWKVDNALQSGNSQESVTEQDSKDSTYSLSSTLTLSKADYEKHKVYACEVTHQGLSSPVTKSFNRGEC
3480 | H0610-G1dh/none-Hi-Kn010G3/TR01L008-k0 (antibody, human IgG1, kappa, single-arm (one Fab)) heavy: not shown EPKSSDKTHTCPPCPAPELLGGPSVFLFPPKPKDTLMISRTPEVTCVVVDVSHEDPEVKFNWYVDGVEVHNAKTKPREEQYNSTYRVVSVLTVLHQDWLNGKEYKCKVSNKALPAPIEKTISKAKGQPREPQVCTLPPSRDELTKNQVSLWCLVKGFYPSDIAVEWESNGQPENNYKTTPPVLDSDGSFFLYSKLTVDKSRWQQGNVFSCSVMHEALHNRYTQKSLSLSP light: DIVMTQSPLSLPVTPGEPASISCQASESLVHSNRNTYLHWYQQKPGQAPRLLIYKVSNRFRGVPDRFSGSGSGTDFTLKISRVEAEDVGVYYCGQGTQVPYTFGQGTKLEIKRTVAAPSVFIFPPSDEQLKSGTASVVCLLNNFYPREAKVQWKVDNALQSGNSQESVTEQDSKDSTYSLSSTLTLSKADYEKHKVYACEVTHQGLSSPVTKSFNRGEC
